Measurements from patent publication US20240318218A1 (The Trustees of Columbia University in The City of New York, priority 2023, published 2024).

Key:
[1] = target: T1, B. subtilis polyphosphate NAD+ kinase (PPNK), recombinant, 6x-histidine tag (Bacillus subtilis, UniProt O31612); assay: Kinetics of polyphosphate NAD+ kinase (PPNK), coupled to TPNOX, absorbance at 340 nm; details: 26° C., pH 7.8, 10 mM MgCl2, random bi-bi sequential
T1 sequence (O31612 1-266): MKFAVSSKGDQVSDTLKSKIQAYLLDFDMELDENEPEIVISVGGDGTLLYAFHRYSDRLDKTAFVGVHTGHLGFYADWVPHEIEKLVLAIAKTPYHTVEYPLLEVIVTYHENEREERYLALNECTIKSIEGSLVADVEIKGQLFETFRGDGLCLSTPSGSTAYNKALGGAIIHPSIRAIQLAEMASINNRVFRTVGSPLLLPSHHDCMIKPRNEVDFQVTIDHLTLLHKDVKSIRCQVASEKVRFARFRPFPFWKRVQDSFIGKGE
Method: (§4) For overexpression, the enzymes were transformed into BL21(DE3) E. coli cells (New England Biolabs). […] Overexpression of the enzymes was induced by adding isopropyl-β-thiogalactopyranoside (IPTG) to a final concentration of 1 mM at an optical density (OD) of 0.6 at 600 nm. After 3 h of induction, the cells were harvested and sonicated in wash buffer A for TPNOX (10 mM imidazole, 300 mM NaCl, and 20 mM Tris-HCl pH 7.4) and wash buffer B for all other enzymes (40 mM imidazole, 300 mM NaCl, and 20 mM Tris-HCl pH 7.4). The cells were centrifuged at 7000 rpm for 1 h and 4° C. The protein was purified using a nickel-nitrilotriacetic acid (Ni-NTA) column with continuous elution up to 500 mM imidazole.
(§5) The reaction was carried out at 26° C. in a solution containing 10 mM Tris-HCl, pH 7.8, 10 mM MgCl2, and 0.02 μg/μL TPNOX. […] A molar absorption coefficient of 6.22×10^4 mol^−1 cm^−1 was used to convert absorption to molar concentration of NADPH.

human NADK = target: T2, human NADK (Homo sapiens, UniProt O95544); details: cited from earlier work
T2 sequence (O95544 1-446): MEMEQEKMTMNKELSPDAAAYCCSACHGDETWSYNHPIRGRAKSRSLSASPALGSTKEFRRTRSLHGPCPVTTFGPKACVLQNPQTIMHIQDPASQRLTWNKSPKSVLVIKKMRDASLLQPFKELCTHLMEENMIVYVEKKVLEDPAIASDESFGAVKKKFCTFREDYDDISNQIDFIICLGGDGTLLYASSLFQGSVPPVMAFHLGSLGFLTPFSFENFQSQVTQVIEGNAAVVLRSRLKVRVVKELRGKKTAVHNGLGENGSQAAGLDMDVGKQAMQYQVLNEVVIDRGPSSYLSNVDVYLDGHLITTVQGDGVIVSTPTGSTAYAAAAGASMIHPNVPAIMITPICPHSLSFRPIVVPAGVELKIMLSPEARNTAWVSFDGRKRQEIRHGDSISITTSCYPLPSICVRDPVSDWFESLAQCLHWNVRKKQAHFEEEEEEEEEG

ATP production = details: 1 mM fuel; cascade with ADH, formDH and FDH; polyphosphate; 200 μL
Method: Exemplary cascades were tested with ADH and formDH. […] The cascade was tested in 200 μL reaction volumes.

[2] = substrate: NC(=O)c1ccc[n+]([C@@H]2O[C@H](COP(=O)([O-])OP(=O)(O)OC[C@H]3O[C@@H](n4cnc5c(N)ncnc54)[C@H](O)[C@@H]3O)[C@@H](O)[C@H]2O)c1; assay: Kinetics of formate dehydrogenase (FDH); assay type: biochemical, C. boidinii; details: other: abbreviated sequential mechanism; pH 7.4; 37.0 °C
Excerpt: (§1) The enzymes involved in the cascade were characterized. Kinetic parameters for the NADH-dependent dehydrogenases, PPNKs, NADPH oxidases, and NADKs included in the exemplary embodiments of the present disclosure are shown in Table I below.
(§2) The FDH from C. boidinii was expressed recombinantly in a pEt28a plasmid and purified according to the materials and methods.
(§3) For overexpression, the enzymes were transformed into BL21(DE3) E. coli cells (New England Biolabs). Overnight cultures of BL21(DE3) E. coli cells harboring the DNA in pET20b plasmids and pET28a plasmid for FDH and sfGFP, respectively, were transferred into 50 mL of LB medium with 100 μg/mL ampicillin at 37° C. Overexpression of the enzymes was induced by adding isopropyl-β-thiogalactopyranoside (IPTG) to a final concentration of 1 mM at an optical density (OD) of 0.6 at 600 nm. After 3 h of induction, the cells were harvested and sonicated in wash buffer A for TPNOX (10 mM imidazole, 300 mM NaCl, and 20 mM Tris-HCl pH 7.4) and wash buffer B for all other enzymes (40 mM imidazole, 300 mM NaCl, and 20 mM Tris-HCl pH 7.4). The cells were centrifuged at 7000 rpm for 1 h and 4° C. The protein was purified using a nickel-nitrilotriacetic acid (Ni-NTA) column with continuous elution up to 500 mM imidazole.

[3] = substrate: O=CO; assay: Kinetics of formate dehydrogenase (FDH); assay type: biochemical, C. boidinii; details: other: abbreviated sequential mechanism; pH 7.4; 37.0 °C
Excerpt: as §1, §2, §3

[4] = substrate: Nc1ncnc2c1ncn2[C@@H]1O[C@H](COP(=O)(O)OP(=O)(O)OP(=O)(O)O)[C@@H](O)[C@H]1O; assay: purified protein, by the assay type; details: other: cosubstrate NADH, 26° C., pH 7.8, 10 mM MgCl2, random bi-bi sequential
Method: as §4, §5

[5] = substrate: NC(=O)C1=CN([C@@H]2O[C@H](COP(=O)(O)OP(=O)(O)OC[C@H]3O[C@@H](n4cnc5c(N)ncnc54)[C@H](O)[C@@H]3O)[C@@H](O)[C@H]2O)C=CC1; assay: purified protein, by the assay type; details: 26° C., pH 7.8, 10 mM MgCl2, random bi-bi sequential, pH 7.8, 26.0 °C
[6] = substrate: NC(=O)c1ccc[n+]([C@@H]2O[C@H](COP(=O)([O-])OP(=O)(O)OC[C@H]3O[C@@H](n4cnc5c(N)ncnc54)[C@H](OP(=O)(O)O)[C@@H]3O)[C@@H](O)[C@H]2O)c1; assay: purified protein, by the assay type; details: other: reverse direction; random bi-bi sequential mechanism
[7] = substrate: Nc1ncnc2c1ncn2[C@@H]1O[C@H](COP(=O)(O)OP(=O)(O)O)[C@@H](O)[C@H]1O; assay: purified protein, by the assay type; assay type: biochemical, pigeon; details: other: reverse direction; random bi-bi sequential mechanism
Excerpt: The ATP-producing NADK has been predominantly studied in the forward direction (consuming ATP) since the observed isoforms, such as the human NADK, are irreversible. Without wishing to be bound by theory, one form, pigeon NADK, follows a random bi-bi sequential mechanism and the kinetic parameters for the reverse direction are found in Table I.
Synthetic pigeon, duck, and cat NADK genes and a cloned human NADK gene all with C-terminal 6×-histidine tags were expressed E. coli and purified to apparent homogencity. The pigeon enzyme shares 85% sequence homology with the human enzyme, while the duck and pigeon enzymes are 96% sequence homology. The cat enzyme shares a 91% sequence homology to the human enzyme.
Referring now to FIGS. 3A-3B, initial rate kinetic experiments were performed with pigeon, duck, cat, and human NADK enzymes in both the forward and reverse directions. […] In FIG. 3B, the production of ATP was detected in a coupled reaction with firefly luciferase where ATP was converted to light, the relative luminescence (RLU) was monitored, and a standard curve was used to calculate the ATP concentration. […]
ATP production was measured using firefly luciferase. […] The luminescence was measured in a plate reader in 26° C. in a solution containing 10 mM Tris-HCl, pH 7.8, and 10 mM MgCl2. The ATP produced was calculated from luminescence using a calibration plot. […]

NADK = assay: Initial rate kinetic experiments with pigeon, duck, cat and human NADK enzymes, forward and reverse directions; assay type: biochemical; details: reverse direction (NADP^+ + ADP to NAD^+ + ATP); recombinant enzyme
Method: Recombinantly-expressed NADKs were explored for their reversible activities. It was hypothesized that the reversibility of the pigeon enzyme would enable compensation for the high picolinic acid […] (PC) activity present in pigeon livers, which inhibits NAD^+ biosynthesis from dietary tryptophan. […] It was determined that human NADK has an affinity for NAD^+ that is about 600 times higher than the pigeon, duck and cat isoforms. Without wishing to be bound by theory, NAD^+ serves as a product inhibitor for the reverse human NADK activity, which accounts for the observed irreversible behavior. While each of the NADKs explored were “reversible,” the reverse activity of the human enzyme is impeded via product inhibition. […]
Referring now to FIGS. 3A-3B, initial rate kinetic experiments were performed with pigeon, duck, cat, and human NADK enzymes in both the forward and reverse directions. […] In FIG. 3B, the production of ATP was detected in a coupled reaction with firefly luciferase where ATP was converted to light, the relative luminescence (RLU) was monitored, and a standard curve was used to calculate the ATP concentration.

In the case of `NC(=O)C1=CN([C@@H]2O[C@H](COP(=O)(O)OP(=O)(O)OC[C@H]3O[C@@H](n4cnc5c(N)ncnc54)[C@H](O)[C@@H]3O)[C@@H](O)[C@H]2O)C=CC1` [NADH], the kcat ([1]; substrates NADH and ATP) is listed as “(2.6 ± 1.9) × 10^2 min^−1”, the kcat ([1]; substrates NADH and poly(P) (sodium metaphosphate)) is listed as “(5.6 ± 2.6) × 10^2 min^−1” and the “inhibition of human NADK” value (human NADK) is listed as “inhibited”.

For `CO` [methanol], the ATP production rate (ATP production) was 7.2×10^7 total RLU/h.

With `O=CO` [formate] the ATP production rate (ATP production) was 1.3×10^7 total RLU/h.

In the case of `NC(=O)C1=CN([C@@H]2O[C@H](COP(=O)(O)OP(=O)(O)OC[C@H]3O[C@@H](n4cnc5c(N)ncnc54)[C@H](OP(=O)(O)O)[C@@H]3O)[C@@H](O)[C@H]2O)C=CC1` [NADPH], the “inhibition of human NADK” value (human NADK) is given as “inhibited”.

In the case of `NC(=O)c1ccc[n+]([C@@H]2O[C@H](COP(=O)([O-])OP(=O)(O)OC[C@H]3O[C@@H](n4cnc5c(N)ncnc54)[C@H](OP(=O)(O)O)[C@@H]3O)[C@@H](O)[C@H]2O)c1` [NADP^+], the “inhibition of human NADK” value (human NADK) is listed as “not”.

B1: C. boidinii formate dehydrogenase (FDH), recombinant ([Candida] boidinii) (protein)
chain: MKIVLVLYDAGKHAADEEKLYGCTENKLGIANWLKDQGHELITTSDKEGETSELDKHIPDADIIITTPFHPAYITKERLDKAKNLKLVVVAGVGSDHIDLDYINQTGKKISVLEVTGSNVVSVAEHVVMTMLVLVRNFVPAHEQIINHDWEVAAIAKDAYDIEGKTIATIGAGRIGYRVLERLLPFNPKELLYYDYQALPKEAEEKVGARRVENIEELVAQADIVTVNAPLHAGTKGLINKELLSKFKKGAWLVNTARGAICVAEDVAAALESGQLRGYGGDVWFPQPAPKDHPWRDMRNKYGAGNAMTPHYSGTTLDAQTRYAEGTKNILESFFTGKFDYRPQDIILLNGEYVTKAYGKHDKK
notes: made in house; host or cells: E. coli BL21(DE3)
In the case of B1, the Km [2] is reported as 30 ± 2 µM, the kcat [2] is reported as “(3.4 ± 0.1) × 10^2 min^−1” and the Km [3] is reported as 4000 ± 60 µM.

B2: B. subtilis polyphosphate NAD+ kinase (PPNK), recombinant, 6x-histidine tag (Bacillus subtilis subsp. subtilis str. 168) (protein)
chain: MKFAVSSKGDQVSDTLKSKIQAYLLDFDMELDENEPEIVISVGGDGTLLYAFHRYSDRLDKTAFVGVHTGHLGFYADWVPHEIEKLVLAIAKTPYHTVEYPLLEVIVTYHENEREERYLALNECTIKSIEGSLVADVEIKGQLFETFRGDGLCLSTPSGSTAYNKALGGAIIHPSIRAIQLAEMASINNRVFRTVGSPLLLPSHHDCMIKPRNEVDFQVTIDHLTLLHKDVKSIRCQVASEKVRFARFRPFPFWKRVQDSFIGKGE
For B2, the Km [4] was 1400 ± 1110 µM, the Km ([5]; other: cosubstrate ATP) was 1700 ± 1400 µM and the Km ([5]; other: cosubstrate poly(P) (sodium metaphosphate)) was 1200 ± 600 µM.

B3: pigeon NADK (ATP-NAD+ kinase), recombinant, C-terminal 6x-histidine tag (Columba livia) (protein)
chain: MEMNRDKLCPGKADVSSDSAYHCSTCHDDEEWSNTSRGRAKSRSLSASPALGSTKEFRRTRSLHGPCPVTTFGPKACMLQNPKTIMHIQDPASQRLTWNKPPKSVLVIKKIRDASLLQPFKELCVYLTEENNMIVYVEKKVLEDPAIANDDNFGPVKKKFCTFREDYDDISNQIDFIICLGGDGTLLYASSLFQGSVPPVMAFHLGSLGFLTPFNFENFQSQVTQVIEGNAALVLRSRLKVKVVKEHREKTTVQNGIEENGVVSANIEKEVGKQIMQYQVLNEVVVDRGPSSYLSNVDVFLNGHLITTVQGDGVIVSTPTGSTAYAAAAGASMIHPNVPAIMITPICPHSLSFRPIVVPAGVELKIMLSPDARNTAWVSFDGRKRQEICHGDSISITTSCYPLPSICFRDPVSDWFESLAECLHWNVRKKQNNFAVEEEEF
Work on B3 yielded a Km [6] of 730 ± 160 µM, a kcat [6] of 0.145 ± 0.06 s⁻¹ and a Km [7] of 27000 ± 10000 µM.

B4: human NADK: cloned human ATP-NAD^+ kinase with C-terminal 6×-histidine tag (protein, UniProt O95544 1-446, looked up)
NAD kinase: MEMEQEKMTMNKELSPDAAAYCCSACHGDETWSYNHPIRGRAKSRSLSASPALGSTKEFRRTRSLHGPCPVTTFGPKACVLQNPQTIMHIQDPASQRLTWNKSPKSVLVIKKMRDASLLQPFKELCTHLMEENMIVYVEKKVLEDPAIASDESFGAVKKKFCTFREDYDDISNQIDFIICLGGDGTLLYASSLFQGSVPPVMAFHLGSLGFLTPFSFENFQSQVTQVIEGNAAVVLRSRLKVRVVKELRGKKTAVHNGLGENGSQAAGLDMDVGKQAMQYQVLNEVVIDRGPSSYLSNVDVYLDGHLITTVQGDGVIVSTPTGSTAYAAAAGASMIHPNVPAIMITPICPHSLSFRPIVVPAGVELKIMLSPEARNTAWVSFDGRKRQEIRHGDSISITTSCYPLPSICVRDPVSDWFESLAQCLHWNVRKKQAHFEEEEEEEEEG
For B4, the “reverse NADK activity” value (NADK) was “no measurable activity in the reverse direction”.
